Columns and labels:
FGF-8 = target: T1, FGF-8 (Homo sapiens, UniProt P55075); assay: Inhibition by antibody of FGF-8-promoted degradation of extracellular matrix of rabbit chondrocytes; assay type: cell-based; conditions: FGF-8 100 ng/mL, 48 hours, 1, 3 or 10 μg/mL tested
T1 construct: purchased R & D
T1 sequence (P55075 23-215 isoform P55075-3 limits assumed): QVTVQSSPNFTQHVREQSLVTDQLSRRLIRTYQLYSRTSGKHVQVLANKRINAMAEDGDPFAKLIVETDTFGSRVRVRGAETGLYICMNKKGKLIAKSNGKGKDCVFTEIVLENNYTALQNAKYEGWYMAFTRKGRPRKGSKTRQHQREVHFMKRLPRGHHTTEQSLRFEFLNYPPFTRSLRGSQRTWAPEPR
Protocol: Rabbit articular chondrocytes were isolated from both knees and shoulders of 3-week-old New Zealand white female rabbits and cultured according to the method of Tamura et al. (Tamura T. et al., Eur. J. Pharmacol., 419, 269-274, 2001). That is, the joints of both knees and the joints of both shoulders were isolated to collect the epiphyseal cartilages. […] The culture solution was removed, and the amount of glycosaminoglycan in extracellular matrix remaining on the plate was measured by the dimethymethylene blue (DMMB) method (Chandrasekhar S. et al., Anal. Biochem. 161 103-108, 1987). […] To 75 μL of this digested solution were added 25 μL of a guanidine hydrochloride buffer (2.88 mol/L guanidine hydrochloride, 50 mmol/L sodium acetate, pH 6.8) and 200 μL of a DMMB solution, and the absorbance was measured at 530/590 nm. The concentration of glycosaminoglycan of each sample was calculated from the absorbance of chondroitin sulfate (derived from whale cartilages, manufactured by Seikagaku Kogyo) used as a standard. Three experiments were performed for each condition and the mean values and the standard error were calculated.

[1] = tested on: mouse collagen-induced arthritis model; assay: Mouse collagen-induced arthritis model; assay type: in vivo; conditions: day 42; 2 mg/mL, 200 μL per mouse intraperitoneally; compared to saline administrated group
Protocol: The mouse collagen-induced arthritis model was prepared in the following manner according to the method of Kamada et al., (Kamada H. et al., Jpn. J. Pharmacol., 70, 169-175, 1996) using DBA/1J mice (male, 7 weeks old, Japan Charles River).
A bovine cartilage-derived type II collagen solution (manufactured by Collagen Gijutsu Kenshu) was mixed with a Freund's complete adjuvant (manufactured by Iatron) under ice cooling to form an emulsion which was adjusted such that the final concentration of the type II collagen became 1.5 mg/mL. The emulsion was intradermally injected in amount of 100 μL at the base of the tail of the mouse for sensitization. Twenty-one days later, the additional immunization was performed in the same manner. One group consisted of 10 mice. Anti-FGF-8 neutralizing antibody KM1334 was dissolved in a saline (manufactured by Otsuka Seiyaku Kojo) to a final concentration of 2 mg/mL, and the solution was intraperitoneally administered to a KM1334 administrated group at a dose of 200 μL for each mouse once a day on days 21, 25, 28, 32, 35 and 39 from the initial sensitization of the mouse collagen-induced arthritis model. […] The change with time of edemas of all limbs in collagen-induced arthritis was evaluated by the scoring from 0 to 4 in each limb to a total of 16 at the maximum score in all limbs. […]

B1: KM1334: anti-FGF-8 neutralizing monoclonal antibody produced by hybridoma KM1334 (FERM BP-5451), mouse IgG1 subclass (antibody, V domains shown)
VH: QVQLQQSGAEVARPGASVKLSCKASGYTFTDYYLNWVKQRSGQGLEWIGEIDPGSDSIYYNENLEGRATLTADKSSSTAYMQLNSLTSEDSAVYFCARYGYSRYDVRFVYWGQGTLVTVST
VL: DVLMTQTPLSLPVSLGDQASISCRSSQSLVHSNGRTYLEWYLQKPGQSPKVLIYKVSNRISGVPDRFSGSGSGTDFTLKISRVEAEDLGVYFCFQGSHVPYTFGGGTKLEIK
FGF-8
  antibody concentration at which the promotion of degradation of extracellular matrix of the cartilage with FGF-8 was significantly inhibited: ≥ 3 µg/mL
[1]
  inhibition of the arthritic score: 34%

Reference: patent US7708999B2, “Remedies for arthritis” (Kyowa Hakko Kirin Co., Ltd., priority 2001, dated 2010)
